Measured values taken from patent publication US20240218346A1, “PHOSPHOKETOLASE VARIANTS AND METHODS OF USE” (Genomatica, Inc., priority 2021, published 2024).
Changes are numbered by the printed parent chain. Names may count otherwise.

T1: Bifidobacterium adolescentis fructose-6-phosphate phosphoketolase (H2), wild type, SEQ ID NO: 1 (Bifidobacterium adolescentis, UniProt A1A185)
T1 sequence (A1A185 with tags, fused parts or gaps): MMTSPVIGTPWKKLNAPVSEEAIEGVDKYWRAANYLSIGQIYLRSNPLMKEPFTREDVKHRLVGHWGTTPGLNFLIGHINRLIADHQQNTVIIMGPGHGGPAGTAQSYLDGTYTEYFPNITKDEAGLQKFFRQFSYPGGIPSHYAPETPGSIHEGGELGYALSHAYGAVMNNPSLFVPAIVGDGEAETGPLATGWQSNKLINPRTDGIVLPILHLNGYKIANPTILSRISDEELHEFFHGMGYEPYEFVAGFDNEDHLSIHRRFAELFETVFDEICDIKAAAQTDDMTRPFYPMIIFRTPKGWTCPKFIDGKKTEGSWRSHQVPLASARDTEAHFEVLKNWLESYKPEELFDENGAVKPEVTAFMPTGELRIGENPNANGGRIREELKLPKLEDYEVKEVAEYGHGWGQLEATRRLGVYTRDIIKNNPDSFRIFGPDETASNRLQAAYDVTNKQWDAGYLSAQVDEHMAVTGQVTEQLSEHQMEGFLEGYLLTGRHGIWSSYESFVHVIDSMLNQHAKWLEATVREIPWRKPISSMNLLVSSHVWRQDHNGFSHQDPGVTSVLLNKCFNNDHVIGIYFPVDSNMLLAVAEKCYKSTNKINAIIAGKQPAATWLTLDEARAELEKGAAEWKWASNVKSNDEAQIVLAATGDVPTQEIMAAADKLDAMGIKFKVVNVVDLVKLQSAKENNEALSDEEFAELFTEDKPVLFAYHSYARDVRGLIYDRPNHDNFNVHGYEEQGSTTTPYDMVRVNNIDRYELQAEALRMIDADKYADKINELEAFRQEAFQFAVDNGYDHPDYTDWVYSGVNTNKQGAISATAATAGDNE

B1: Bifidobacterium adolescentis fructose-6-phosphate phosphoketolase (H2, SEQ ID NO: 1) variant H239R (Bifidobacterium adolescentis ATCC 15703; H238R) (protein)
chain: T1 sequence (A1A185 with tags, fused parts or gaps) with H239R
B2: Bifidobacterium adolescentis fructose-6-phosphate phosphoketolase (H2, SEQ ID NO: 1) variant Q759L (Bifidobacterium adolescentis ATCC 15703; Q758L) (protein)
chain: T1 sequence (A1A185 with tags, fused parts or gaps) with Q759L
B3: Bifidobacterium adolescentis fructose-6-phosphate phosphoketolase (H2, SEQ ID NO: 1) variant C567S (Bifidobacterium adolescentis ATCC 15703; C566S) (protein)
chain: T1 sequence (A1A185 with tags, fused parts or gaps) with C567S
B4: Bifidobacterium adolescentis fructose-6-phosphate phosphoketolase (H2, SEQ ID NO: 1) variant Y799I (Bifidobacterium adolescentis ATCC 15703; Y798I) (protein)
chain: T1 sequence (A1A185 with tags, fused parts or gaps) with Y799I
B5: Bifidobacterium adolescentis fructose-6-phosphate phosphoketolase (H2, SEQ ID NO: 1) variant Y804W (Bifidobacterium adolescentis ATCC 15703; Y803W) (protein)
chain: T1 sequence (A1A185 with tags, fused parts or gaps) with Y804W
B6: Bifidobacterium adolescentis fructose-6-phosphate phosphoketolase (H2, SEQ ID NO: 1) variant H257P (Bifidobacterium adolescentis ATCC 15703; H256P) (protein)
chain: T1 sequence (A1A185 with tags, fused parts or gaps) with H257P
B7: Bifidobacterium adolescentis fructose-6-phosphate phosphoketolase (H2, SEQ ID NO: 1) variant M483C (Bifidobacterium adolescentis ATCC 15703; M482C) (protein)
chain: T1 sequence (A1A185 with tags, fused parts or gaps) with M483C
B8: Bifidobacterium adolescentis fructose-6-phosphate phosphoketolase (H2, SEQ ID NO: 1) variant S504A (Bifidobacterium adolescentis ATCC 15703; S503A) (protein)
chain: T1 sequence (A1A185 with tags, fused parts or gaps) with S504A

How the values were obtained:
[1] = system: Collinsella aerofaciens xylulose-5-phosphate/fructose-6-phosphate phosphoketolase (D3), wild type, SEQ ID NO: 2; test: Kinetics, Hydroxymate based colorimetric assay for FPK activity (F6P); format: biochemical
Text: Mutagenesis techniques were used to generate engineered phosphoketolases based on one of two template phosphoketolases (the fructose-6-phosphate phosphoketolase from Bifidobacterium adolescentis (strain ATCC 15703 DSM 20083 NCTC 11814 E194a) (“H2”; UniProtKB Accession No. A1A185_BIFAA; SEQ ID NOs: 1 and 3) orthe xylulose-5-phosphate/fructose-6-phosphate phosphoketolase from Collinsella aerofaciens (“D3”; UniProt KB Accession No. A0A174LGR4_9ACTN; SEQ ID NOs: 2 and 4)). Engineered phosphoketolase were generated using rational protein engineering. Structural homology models were constructed for H2 and D3. The substrate docking with Xu5P and F6P were also performed. In total, 2000 variants were designed. […]
(§1) Further biochemical characterization of selected variants was conducted and the FPK activity of these variants were assessed. […] The kinetics parameters measured during biochemical characterization are summarized below in Table 5. […]
The product of FPK is coupled to ferric-hydroxamate complex production via hydroxamate reactions of its product with hydroxylamine and ferric chloride. Ferric-hydroxamate complex production was measured by absorbance at 520 nm. […]
Cell lysate preparation was the same described as above. […] The reaction was incubated at room temperature for 10 minutes and then sent to the plate reader for absorption at 520 nm.

[2] = system: Collinsella aerofaciens xylulose-5-phosphate/fructose-6-phosphate phosphoketolase (D3), wild type, SEQ ID NO: 2; test: Kinetics, E4PDH based colorimetric assay for FPK activity (F6P); format: biochemical
Text: Mutagenesis techniques were used to generate engineered phosphoketolases based on one of two template phosphoketolases (the fructose-6-phosphate phosphoketolase from Bifidobacterium adolescentis (strain ATCC 15703 DSM 20083 NCTC 11814 E194a) (“H2”; UniProtKB Accession No. A1A185_BIFAA; SEQ ID NOs: 1 and 3) orthe xylulose-5-phosphate/fructose-6-phosphate phosphoketolase from Collinsella aerofaciens (“D3”; UniProt KB Accession No. A0A174LGR4_9ACTN; SEQ ID NOs: 2 and 4)). Engineered phosphoketolase were generated using rational protein engineering. Structural homology models were constructed for H2 and D3. The substrate docking with Xu5P and F6P were also performed. In total, 2000 variants were designed. There are 1031 constructs designed based on H2, and 969 based on D3. 1999 constructs were received from DNA synthesis. […]
as §1
The product of FPK is coupled to NADH production via a one-step enzymatic reaction of its product with E4PDH. NADH production overtime was measured by absorbance at 340 nm. […]
5 μL of half diluted cell lysate was added into 45 μL of reaction buffer. […] The reaction was recorded for a 10-min kinetics reading at 340 nm at room temperature.

[3] = molecular target: T1, Bifidobacterium adolescentis fructose-6-phosphate phosphoketolase (H2), wild type, SEQ ID NO: 1; test: Kinetics, Hydroxymate based colorimetric assay for FPK activity (F6P); format: biochemical
Protocol: Further biochemical characterization of selected variants was conducted and the FPK activity of these variants were assessed. […] The FPK kinetics assay was based on the E4PDH based Colorimetric Assay described herein for the 12 hits and the two controls (SEQ ID NO: 1 and SEQ ID NO: 2).
The product of FPK is coupled to ferric-hydroxamate complex production via hydroxamate reactions of its product with hydroxylamine and ferric chloride. Ferric-hydroxamate complex production was measured by absorbance at 520 nm. This is an end-point assay.
Cell lysate preparation was the same described as above. One typical reaction contained 7.5 uL lysate and 67.5 μL reaction buffer. Reaction buffer contained 1 mM of NADH and 5 mM of F6P substrate for primary screening. 2 mM of F6P was used in secondary screening in reaction buffer 1. The reaction in a plate was incubated at room temperature for 30 minutes. After the 30-min incubation, 25 μL of 2 M hydroxylamine in Tris-HCl solution was added into one reaction to initiate the hydroxamate reaction. The reaction was incubated at room temperature for 10 minutes and then sent to the plate reader for absorption at 520 nm.

[4] = molecular target: T1, Bifidobacterium adolescentis fructose-6-phosphate phosphoketolase (H2), wild type, SEQ ID NO: 1; test: Kinetics, E4PDH based colorimetric assay for FPK activity (F6P); format: biochemical
[5] = substrate: O=P(O)(O)OC[C@H]1OC(O)(CO)[C@@H](O)[C@@H]1O; test: as above; format: biochemical, Bifidobacterium adolescentis; conditions: other: F6P
Text: Mutagenesis techniques were used to generate engineered phosphoketolases based on one of two template phosphoketolases (the fructose-6-phosphate phosphoketolase from Bifidobacterium adolescentis (strain ATCC 15703 DSM 20083 NCTC 11814 E194a) (“H2”; UniProtKB Accession No. A1A185_BIFAA; SEQ ID NOs: 1 and 3) orthe xylulose-5-phosphate/fructose-6-phosphate phosphoketolase from Collinsella aerofaciens (“D3”; UniProt KB Accession No. A0A174LGR4_9ACTN; SEQ ID NOs: 2 and 4)). Engineered phosphoketolase were generated using rational protein engineering. Structural homology models were constructed for H2 and D3. The substrate docking with Xu5P and F6P were also performed. In total, 2000 variants were designed. There are 1031 constructs designed based on H2, and 969 based on D3. 1999 constructs were received from DNA synthesis. The variants were then tested for XPK and/or FPK activity in in vitro primary and secondary screens as described below.
Further biochemical characterization of selected variants was conducted and the FPK activity of these variants were assessed. 12 hits were selected from the secondary screening results of the phosphoketolase library screen for in vitro biochemical characterization. All 12 of the hits selected are variants based on SEQ ID NO: 1. The kinetics parameters measured during biochemical characterization are summarized below in Table 5. The FPK kinetics assay was based on the E4PDH based Colorimetric Assay described herein for the 12 hits and the two controls (SEQ ID NO: 1 and SEQ ID NO: 2).
The product of FPK is coupled to NADH production via a one-step enzymatic reaction of its product with E4PDH. NADH production overtime was measured by absorbance at 340 nm. The reactions are listed below.
5 μL of half diluted cell lysate was added into 45 μL of reaction buffer. The reaction buffer contained an approximate amount of E4PDH enzyme, 1 mM NADH and 5 mM F6P as substrate for primary screening. 2 mM F6P was used for secondary screening. The reaction was recorded for a 10-min kinetics reading at 340 nm at room temperature.

Row | Molecule | Km [5] | kcat [5] | kcat/Km [5] | other results
1 | O=P(O)(O)OC[C@H]1OC(O)(CO)[C@@H](O)[C@@H]1O (stereo partly drawn) [F6P, D-fructose-6-phosphate] |  |  |  | Km [1]: 9.31 mM; kcat [1]: 19.57 s⁻¹; Km [2]: 27.9 mM; kcat [2]: 7.824 s⁻¹; Km [3]: 1.04 mM; kcat [3]: 5.933 s⁻¹; Km [4]: 4.89 mM; kcat [4]: 30.07 s⁻¹
2 | B1 | 2.432 mM | 57.9 s⁻¹ | 23800 M⁻¹ s⁻¹ | 
3 | B2 | 3.596 mM | 35.6 s⁻¹ | 9890 M⁻¹ s⁻¹ | 
4 | B3 | 3.046 mM | 26.4 s⁻¹ | 8660 M⁻¹ s⁻¹ | 
5 | B4 | 4.53 mM | 33.6 s⁻¹ | 7430 M⁻¹ s⁻¹ | 
6 | B5 | 2.86 mM | 30.8 s⁻¹ | 10800 M⁻¹ s⁻¹ | 
7 | B6 | 2.422 mM | 25 s⁻¹ | 10300 M⁻¹ s⁻¹ | 
8 | B7 | 2.299 mM | 34 s⁻¹ | 14800 M⁻¹ s⁻¹ | 
9 | B8 | 3.347 mM | 26.3 s⁻¹ | 7850 M⁻¹ s⁻¹ | 
